# Reference: US20080085859A1, “Drug Promoting Ceramide Transport, Base Sequence for Producing the Drug, Method of Measuring Activity of Promoting Ceramide Release and Method of Measuring Activity of Promoting Intermembrane Ceramide Transfer” (JAPAN SCIENCE AND TECHNOLOGY AGENCY, priority 2003, published 2008)
# B1: hCERT protein: human CERT protein having an amino acid sequence of SEQ ID NO:1 (protein)
# chain: MSDNQSWNSSGSEEDPETESGPPVERCGVLSKWTNYIHGWQDRWVVLKNNALSYYKSEDETEYGCRGSICLSKAVITPHDFDECRFDISVNDSVWYLRAQDPDHRQQWIDAIEQHKTESGYGSESSLRRHGSMVSLVSGASGYSATSTSSFKKGHSLREKLAEMETFRDILCRQVDTLQKYFDACADAVSKDELQRDKVVEDDEDDFPTTRSDGDFLHSTNGNKEKLFPHVTPKGINGIDFKGEAITFKATTAGILATLSHCIELMVKREDSWQKRLDKETEKKRRTEEAYKNAMTELKKKSHFGGPDYEEGPNSLINEEEFFDAVEAALDRQDKIEEQSQSEKVRLHWPTSLPSGDAFSSVGTHRFVQKVEEMVQNHMTYSLQDVGGDANWQLVVEEGEMKVYRREVEENGIVLDPLKATHAVKGVTGHEVCNYFWNVDVRNDWETTIENFHVVETLADNAIIIYQTHKRVWPASQRDVLYLSVIRKIPALTENDPETWIVCNFSVDHDSAPLNNRCVRAKINVAMICQTLVSPPEGNQEISRDNILCKITYVANVNPGGWAPASVLRAVAKREYPKFLKRFTSYVQEKTAGKPILF
# modifications: HeLa cell
# Legend:
# [1] = releasing reaction assay with other lipids as substrate (specificity); assay type: biochemical; details: FIG. 15
# Procedure: Hereinafter, the standard method will be described in detail, however, even if the described conditions are changed, a method of detecting ceramide release promotion activity having means for separating releasing ceramide by a centrifugation principally belongs to the present invention. The lipid membrane containing ceramide was prepared so that it contains 12.5 nCi (225 pmol) per sample of [palmitoyl-1-^14C]N-palmitoyl-D-ethyro-sphigosine (hereinafter, may be referred to as ^14C-ceramide) on the basis of the mixed lipid consisting of phosphatidylcholine and phosphatidylethanolamine derived from egg yolk at the ratio of 4:1 and its concentration becomes 2.5 mg/mL. This lipid membrane is required at the rate of 20 μL per one sample of the activity measurement. […]
# hCERT protein or its recombinant protein described above as a protein sample to be targeted (under the standard conditions, the amount of protein corresponding to 450 picomoles, which is 2-fold molar equivalent amount of ceramide contained in the donating membrane was used) were messed up to 30 μL using the buffer 2 [50 mM Hepes-NaOH buffer (pH7.4) to which 100 mM NaCl and 0.5 mM EDTA have been added]. […] The activity for promoting ceramide release with hCERT was calculated by measuring the radioactive activity of ^14C in the supernatant fraction using a liquid scintillation counter. […]
# [2] = tested on: LY-A2 cell; experiment: sensibility to MCD and lysenin (MTT); assay type: cell-based, Chinese hamster
# Procedure: 100 thousand pieces of cells per each well of a 12-well culture dish were inoculated in 1 mL of F12/NBS culture medium and cultured at 33° C. overnight. After Cells existed on the culture dish was washed twice in 1 mL of serum-free F12 medium, 1 mL of 10 mM MCD/F12 or lysenin (25 ng/mL)/F12 was added. It should be noted that culture medium in which 1 mL of only serum-free F12 has been added was made control. After it has been incubated at 37° C. for one hour, it was washed twice in 1 mL of phosphate buffered saline (PBS). Subsequently, 1 mL of MTT (0.5 mg/mL)/F12 was added and incubated at 37° C. for one hour. The relative amount of the generated reduced form of MTT was measured by a method of reference literature written by Hanada et al (J. Biol. Chem. 273, 33787-33794, 1998).
# The relevant gene was expressed in LY-A2 cell by making virus particle derived from retrovirus vector infect it prepared in the foregoing paragraph. Specifically, the relevant gene was expressed in LY-A2 cell by making virus particle derived from pLIB/hCERT. In the case where hCERT was expressed, the purified transformed strain was also separated by a ultradilution method, and this strain was named as LY-A2/hCERT. After it has been cultured for days, the sensitivity to MCD and lysenin was examined by the above-described method. […]
# [3] = tested on: LY-A2 cell; experiment: metabolism labeling of lipid using [14C] serine and [14C] choline; assay type: cell-based, Chinese hamster; details: LY-A2/hCERT cell
# Procedure: CHO-K1 cell, LY-A2 cell, and LY-A2/hCERT cell were inoculated at the cell density of 1.0×10^6 per culture dish having the 60-mm diameter, and cultured at 33° C. overnight. Subsequently, it was exchanged with […] of Nutridoma medium, after [^14C] serine (0.75 μCi) or [^14C] choline (1.0 μCi) have been added, in the case where [^14C] serine is added, it was cultured for 2 hours, and in the case where [^14C] choline is added, it was cultured at 33° C. for 5 hours. However, in the case where the influence on (1R, 3R) HPA-12 is analyzed, after it was pretreated at […] for 15 minutes in 1.5 mL of Nutridoma medium to which 1 μM of (1R,3R) HPA-12 has been added (in control experiment, dimethylsulfoxide used for dissolving a drug was added at the concentration corresponding to 0.01% of the final concentration), [^14C] serine was added, and cultured at 33° C. for 2 hours. After the cell was washed twice in 2 mL of cooled PBS, dissolved in 900 μL of sodium dodecyl sulfate (SDS), then, 800 μL and 20 μL of dissolved matter were used for determining lipid extraction and protein concentration. For the purpose of analyzing lipid labeled with [^14C] serine, the lipid was separated by TLC by making acetic methyl/n-propanol/chloroform/methanol/0.25% KCl (25:25:25 10:9, volume ratio) development solvent. The radioactive lipid separated on the plate was detected and analyzed by an image analyzer.
molecule,measurement,setting,value
B1,"diacylglycerol releasing promotion, of the activity with respect to ceramide",[1],about 5%
same,"releasing reaction with respect to diacylglycerol, cholesterol, phosphatidylcholine, sphingomyelin, sphingosine",[1]; substrate changed from ceramide to other lipids,did not indicate a significant releasing reaction
same,MCD resistance and lysenin sensitivity,"[2]; LY-A2 infected with virus particle derived from pLIB/hCERT, FIG. 2",significantly acquired MCD resistance and lysenin sensitivity
same,sensitivity to MCD and lysenin,"[2]; purified LY-A2/hCERT cell, FIG. 3(A)",approximately the same level as the sensitivity seen in the wild type CHO-K1 cell
same,PC synthesizing rate,"[3]; radioactive choline, FIG. 4(B)",at the wild type level
same,SM biosynthesizing rate,"[3]; radioactive choline, FIG. 4(B)",recovered to the wild type level
same,SM biosynthesis speed,"[3]; radioactive serine, FIG. 4(A)",recovered to the wild type level
